{
  "source": "paper PMC8594252",
  "origin": "cited, not measured here",
  "biological_target": "HSPE1 (Homo sapiens) (UniProt P61604)",
  "data": [
    {"substance": "HSPE1 (from UniProt P61604)", "values": [
      {"measurement": "Kd", "result": 3, "unit": "µM"}
    ]}
  ]
}
